Values belong to the binder of their own block, whether it stands above or below them. No end group written: not given here.
Experiments:
[1] = biological target: T1, CD123 on CD123 positive AML cells (Oci-AML3, Molm-13, MV4-11, primary AML cells) (human, UniProt P26951 19-378); assay: cellular binding assay per table caption, Molm-13 cells; Molm-13 cells
T1 construct: whole, on cells; Endogenous CD123 on human AML cell lines; also called target antigen CD123

[2] = biological target: T1, CD123 on CD123 positive AML cells …; assay: cellular binding assay per table caption, Oci-AML3 cells; Oci-AML3 cells
[3] = biological target: T2, La epitope 5B9 (SEQ ID No. 28) fused to human Fc domain (human, also: fused to human Fc domain, order, isotype, linker not given here); assay: SPR, Biacore X100, La epitope 5B9-human Fc on CM5 chip; KD 5B9 (second number of the cell)
T2 construct: Coupled to a CM5 sensor chip; not shown: human Fc domain
T2 chain: KPLPEVTDEY
Description: (§1) Furthermore, binding of different variants of the targeting module according to the invention was analyzed using the La epitope 5B9 (SEQ ID No. 28) fused to human Fc domain which was coupled to a CM5 sensor chip on a Biacore X100 device (FIG. 3). The targeting modules were purified monomers. The targeting modules were concentrated between 2.47 to 200 nM and measured in technical duplicates. For data fitting and KD calculation a two-state-reaction binding model was applied.

human CD123-Fc [4] = biological target: T3, human CD123-Fc (human, UniProt P26951 19-305, limits assumed); assay: SPR, Biacore X100, human CD123-Fc on CM5 chip, 1:1 model; KD CD123 (first number of the cell)
T3 construct: Coupled to a CM5 sensor chip; also called soluble recombinant CD123; not shown: Fc part
T3 sequence (looked up): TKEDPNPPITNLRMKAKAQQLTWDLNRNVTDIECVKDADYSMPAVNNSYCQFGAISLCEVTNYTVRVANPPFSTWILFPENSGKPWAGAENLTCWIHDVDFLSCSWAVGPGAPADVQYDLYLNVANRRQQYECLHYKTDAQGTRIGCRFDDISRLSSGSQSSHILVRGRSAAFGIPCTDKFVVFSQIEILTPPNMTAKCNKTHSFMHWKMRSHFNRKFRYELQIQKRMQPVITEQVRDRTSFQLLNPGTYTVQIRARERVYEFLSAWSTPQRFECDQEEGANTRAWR
Description: (§2) Binding of different variants of the targeting module according to the invention was analyzed by SPR measurements using human CD123-Fc coupled to a CM5 sensor chip on a Biacore X100 device (FIG. 2). Targeting modules were purified monomer except for the targeting module according to SEQ ID No. 8. […] For data fitting and KD calculation a 1:1 binding model was applied.

human CD123-Fc [5] = biological target: T3, human CD123-Fc; assay: SPR, Biacore X100, human CD123-Fc on CM5 chip, 1:1 model; TM not purified monomer
Description: as §2

[6] = biological target: T2, La epitope 5B9 (SEQ ID No. 28) fused to …; assay: SPR, Biacore X100, La epitope 5B9-human Fc on CM5 chip
Description: as §1

human CD123-Fc [7] = biological target: T3, human CD123-Fc; assay: SPR, Biacore X100, human CD123-Fc on CM5 chip, 1:1 model
Description: as §2

[8] = biological target: T1, CD123 on CD123 positive AML cells …; assay: flow cytometry on Oci-AML3 cells, anti-His-PE detection. Half-maximal binding from a four-parameter fit of gMFI. Unit taken from the concentration axis [M]. The curve has no upper plateau in the range shown
Description: Cellular binding of CD123-binding targeting modules (TM) was tested on CD123 positive target cell lines Oci-AML3 and Molm-13: A) SEQ ID No. 5 to Oci-AML3, B) SEQ ID No. 9 to Oci-AML3, C) SEQ ID No. 4 to Molm-13 and D) SEQ ID No. 6 to Molm-13. The affinity of TMs was analyzed by flow cytometry. The TMs were titrated on an AML cell lines and then detected by a mouse anti-His-tag antibody conjugated to phycoerythrin.
Different concentrations of R-TM123 were incubated with cells, washed and quantified. A dose-response curve was obtained when the geometric mean fluorescence (MFI) was plotted against the TM concentration.

B1: targeting module according to SEQ ID No. 2 (reference) (bispecific antibody)
chain: EVQLQQSGPELVKPGASVKMSCKASGYTFTDYYMKWVKQSHGKSLEWIGDIIPSNGATFYNQKFKGKATLTVDRSSSTAYMHLNSLTSEDSAVYYCTRSHLLRASWFAYWGQGTLVTVSAASGGGGSGGGGSGGGGSDFVMTQSPSSLTVTAGEKVTMSCKSSQSLLNSGNQKNYLTWYLQKPGQPPKLLIYWASTRESGVPDRFTGSGSGTDFTLTISSVQAEDLAVYYCQNDYSYPYTFGGGTKLEIKAAARGQVQLVQSGAEVKKPGASVKVSCKASGYTFTHYYIYWVRQAPGQGLEWMGGVNPSNGGTHFNEKFKSRVTMTRDTSISTAYMELSRLRSDDTAVYYCARSEYDYGLGFAYWGQGTLVTVSSGGGGSGGGGSGGGGSDIVMTQSPDSLAVSLGERATINCKSSQSLLNSRTPKNYLAWYQQKPGQPPKLLIYWASTRKSGVPDRFSGSGSGTDFTLTISSLQAEDVAVYYCKQSYNLLTFGGGTKVEIKGPEQKLISEEDLNSAVDHHHHHH
notes: also called muCD123 + 5B9-VH-VL
EC50 [1]: 0.0023 nM
EC50 [2]: 0.0032 nM
Kd [3]: 17 nM
Kd (human CD123-Fc [4]): 0.227 nM

B4: targeting module according to SEQ ID No. 9 (bispecific antibody)
chain: EVQLVQSGAEVKKPGASVKMSCKASGYTFTDYYMKWVKQAPGQGLEWIGDIIPSNGATFYNQKFKGRATLTVDRSTSTAYMELSSLRSEDTAVYYCTRSHLLRASWFAYWGQGTLVTVSSASGGGGSGGGGSGGGGSDFVMTQSPDSLAVSLGERATINCESSQSLLNTGNQKNYLTWYLQKPGQPPKLLIYWASTRESGVPDRFSGSGSGTDFTLTISSVQAEDVAVYYCQNDYSYPYTFGGGTKLEIKAAARGDIVMTQSPDSLAVSLGERATINCKSSQSLLNSRTPKNYLAWYQQKPGQPPKLLIYWASTRKSGVPDRFSGSGSGTDFTLTISSLQAEDVAVYYCKQSYNLLTFGGGTKVEIKGGGGSGGGGSGASAAGGGGSGGGGSQVQLVQSGAEVKKPGASVKVSCKASGYTFTHYYIYWVRQAPGQGLEWMGGVNPSNGGTHFNEKFKSRVTMTRDTSISTAYMELSRLRSDDTAVYYCARSEYDYGLGFAYWGQGTLVTVSSGGGGSHHHHHHHH
notes: also called huCD123_4 + 5B9-VLVH
Kd (human CD123-Fc [7]): 0.162 nM
Kd [8]: 6.77 nM

Now from value to binder:

Kd (human CD123-Fc [5]): 0.131 nM
B2: targeting module according to SEQ ID No. 8 (bispecific antibody)
chain: GQVQLVQSGAEVKKPGASVKMSCKASGYTFTDYYMKWVKQAPGQGLEWIGDIIPSNGATFYNQKFKGRATLTVDKSTSTAYMELSSLRSEDTAVYYCTRSHLLRASWFAYWGQGTLVTVSSASGGGGSGGGGSGGGGSDFVMTQSPDSLAVSLGERATMNCKSSQSLLNSGNQKNYLTWYLQKPGQPPKLLIYWASTRESGVPDRFSGSGSGTDFTLTISSVQAEDVAVYYCQNDYSYPYTFGGGTKLEIKAAARGDIVMTQSPDSLAVSLGERATINCKSSQSLLNSRTPKNYLAWYQQKPGQPPKLLIYWASTRKSGVPDRFSGSGSGTDFTLTISSLQAEDVAVYYCKQSYNLLTFGGGTKVEIKGGGGSGGGGSGASAAGGGGSGGGGSQVQLVQSGAEVKKPGASVKVSCKASGYTFTHYYIYWVRQAPGQGLEWMGGVNPSNGGTHFNEKFKSRVTMTRDTSISTAYMELSRLRSDDTAVYYCARSEYDYGLGFAYWGQGTLVTVSSGGGGSHHHHHHHH
notes: also called huCD123_3 + 5B9-VLVH

Kd [6]: 2 nM
EC50 [2]: 23 nM
B3: targeting module according to SEQ ID No. 3 (bispecific antibody)
chain: GQVQLVQSGAEVKKPGSSVKVSCKASGYTFTDYYIHWVRQAPGQGLEWMGDIIPSNGATFYNQRFKGRVTITADESTSTAYMELSSLRSEDTAVYYCTRSHLLRASWFAYWGQGTLVTVSSASGGGGSGGGGSGGGGSDIVMTQTPLSLSVTPGQPASISCRSSQSLLNSGNQKNYLTWYLQKPGQSPQLLIYWASTRFIGVPDRFSGSGSGTDFTLKISRVEAEDVGVYYCQNDYSYPYTFGQGTKLEIKAAARGDIVMTQSPDSLAVSLGERATINCKSSQSLLNSRTPKNYLAWYQQKPGQPPKLLIYWASTRKSGVPDRFSGSGSGTDFTLTISSLQAEDVAVYYCKQSYNLLTFGGGTKVEIKGGGGSGGGGSGASAAGGGGSGGGGSQVQLVQSGAEVKKPGASVKVSCKASGYTFTHYYIYWVRQAPGQGLEWMGGVNPSNGGTHFNEKFKSRVTMTRDTSISTAYMELSRLRSDDTAVYYCARSEYDYGLGFAYWGQGTLVTVSSGGGGSHHHHHHHH
notes: also called huCD123_1 + 5B9-VL-VH
